The assay deals with Human dermal fibroblasts. The assay is described as follows: Fibroblast cell survival after UVB exposure (MTT assay). The assay is classed as cell-based. As to conditions: UVB approximately 50 mj/cm^2, treated after exposure, MTT 48 hours later. The source says: Construction, analysis and verification of the SELP47K-P4 (SEQ. ID. NO. 36) conjugate proceeded as follows. SELP constructs in which all polymer subunits contain additional P4 (ALSYP) peptide sequences were made as follows: Artificial gene synthesis was used to create a 2 subunit version of the desired construct in which each identical subunit contains a unique non-palindromic restriction site. Specifically, SELP subunits contained either BBI derived P4 sequences (Seq ALSYP) incorporated in two places per subunit, flanking the silk region, incorporated between the C-terminal end of the silk region and the N-terminal end of the elastin region. A BsgI restriction enzyme cleavage site was designed within each subunit. Gene construction was carried out by Blue Heron Biotechnology (Bothell, Wash.). […] Resulting modified SELP monomers as well as plasmid vector were purified from agarose gels and concentrated using a Spin Vac. Monomers were self ligated using T4 DNA ligase (New England Biolabs) as per manufacturer's instructions overnight at 16 C. Original purified vector was added to ligation mix with additional fresh ligase and incubated at 16 C for an additional 24 hrs. Ligation mix was used to transform E. coli TOP10 cells (Invitrogen) as per manufacturer's instructions. Resulting transformants were used to inoculate culture tubes containing 5 ml Luria broth and appropriate antibiotic. […]
In general terms: Tetrazolium dyes change colour on reduction, which living cells bring about.

B1: SELP47K-P4 (protein)
chain: MDPVVLQRRDWENPGVTQLNRLAAHPPFASDPMGAGAGSGAGAGSALSYPGVGVPGVGVPGVGVPGVGVPGKGVPGVGVPGVGVPGVGVPALSYPGAGAGSGAGAGSGAGAGSGAGAGSALSYPGVGVPGVGVPGVGVPGVGVPGKGVPGVGVPGVGVPGVGVPALSYPGAGAGSGAGAGSGAGAGSGAGAGSALSYPGVGVPGVGVPGVGVPGVGVPGKGVPGVGVPGVGVPGVGVPALSYPGAGAGSGAGAGSGAGAGSGAGAGSALSYPGVGVPGVGVPGVGVPGVGVPGKGVPGVGVPGVGVPGVGVPALSYPGAGAGSGAGAGSGAGAGSGAGAGSALSYPGVGVPGVGVPGVGVPGVGVPGKGVPGVGVPGVGVPGVGVPALSYPGAGAGSGAGAGSGAGAGSGAGAGSALSYPGVGVPGVGVPGVGVPGVGVPGKGVPGVGVPGVGVPGVGVPALSYPGAGAGSGAGAGSGAGAGSGAGAGSALSYPGVGVPGVGVPGVGVPGVGVPGKGVPGVGVPGVGVPGVGVPALSYPGAGAGSGAGAGSGAGAGSGAGAGSALSYPGVGVPGVGVPGVGVPGVGVPGKGVPGVGVPGVGVPGVGVPALSYPGAGAGSGAGAGSGAGAGSGAGAGSALSYPGVGVPGVGVPGVGVPGVGVPGKGVPGVGVPGVGVPGVGVPALSYPGAGAGSGAGAGSGAGAGSGAGAGSALSYPGVGVPGVGVPGVGVPGVGVPGKGVPGVGVPGVGVPGVGVPALSYPGAGAGSGAGAGSGAGAGSGAGAGSALSYPGVGVPGVGVPGVGVPGVGVPGKGVPGVGVPGVGVPGVGVPALSYPGAGAGSGAGAGSGAGAGSGAGAGSALSYPGVGVPGVGVPGVGVPGVGVPGKGVPGVGVPGVGVPGVGVPALSYPGAGAGSGAGAGSGAGAGSGAGAGSALSYPGVGVPGVGVPGVGVPGVGVPGKGVPGVGVPGVGVPGVGVPALSYPGAGAGSGAGAGSGAGAMDPGRYQDLRSHHHHHH
modifications: P4-SELP47K silk, elastin ad UV-protective peptides
With B1, the “viability improvement of UV treated human fibroblast cells” value is reported as 100%.

For the origin of these results see US7691806B2, “Repeat sequence protein polymer active agent congjugates, methods and uses” (priority 2003, dated 2010).
